In patent US20260146091A1 (published 2026):

T1: biotinylated mPD-1-Fc (BPS Bioscience) (mouse, UniProt Q02242 25-169, biotinylated (site not stated))
T1 chain: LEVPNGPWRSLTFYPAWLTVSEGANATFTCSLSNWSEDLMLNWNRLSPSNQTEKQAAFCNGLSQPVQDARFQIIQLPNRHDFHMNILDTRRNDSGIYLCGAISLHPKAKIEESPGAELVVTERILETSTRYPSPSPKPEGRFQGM

B1: Nb6p (anti-PD-L1 nanobody) (VHH)
VHH: EVQLVESGGGLVQAGGSLRLSCAAAGRSFNSNAMGWVRQAPGKEREIVAVISATGSYTYYEDSVKGRFTISRDNSKNTVSLQMSSLSSEDTAVYYCAGSRTAALTTIMTLFNYWGQGTQVTVSS
B2: Nb11-Fc (Nb11 fused to mouse IgG1 Fc domain including hinge) (Fc fusion)
chain: AQVQLVQSGGGSVQAGDSLRLSCAVSGHPDSSYSMAWFRQAPGKERELVALISWSGAITHYSDSVKDRFTISRDNAKNEMYLQMDSLKPEDTAVYFCQADDPTSELNQYWGQGTQVTVSSGCKPCICTVPEVSSVFIFPPKPKDVLTITLTPKVTCVVVDISKDDPEVQFSWFVDDVEVHTAQTQPREEQFNSTFRSVSELPIMHQDWLNGKEFKCRVNSAAFPAPIEKTISKTKGRPKAPQVYTIPPPKEQMAKDKVSLTCMITDFFPEDITVEWQWNGQPAENYKNTQPIMDTDGSYFVYSKLNVQKSNWEAGNTFTCSVLHEGLHNHHTEKSLSHSPGK
B3: Nb6p-Fc (Nb6p fused to mouse IgG2a Fc domain including hinge) (Fc fusion)
chain: AEVQLVESGGGLVQAGGSLRLSCAAAGRSFNSNAMGWVRQAPGKEREIVAVISATGSYTYYEDSVKGRFTISRDNSKNTVSLQMSSLSSEDTAVYYCAGSRTAALTTIMTLFNYWGQGTQVTVSSPGPRGPTIKPCPPCKCPAPNLLGGPSVFIFPPKIKDVLMISLSPIVTCVVVDVSEDDPDVQISWFVNNVEVHTAQTQTHREDYNSTLRVVSALPIQHQDWMSGKEFKCKVNNKDLPAPIERTISKPKGSVRAPQVYVLPPPEEEMTKKQVTLTCMVTDFMPEDIYVEWTNNGKTELNYKNTEPVLDSDGSYFMYSKLRVEKKNWVERNSYSCSVVHEGLHNHHTTKSFSRTPGK
B4: Nb11 (anti-PD-1 nanobody) (VHH)
VHH: QVQLVQSGGGSVQAGDSLRLSCAVSGHPDSSYSMAWFRQAPGKERELVALISWSGAITHYSDSVKDRFTISRDNAKNEMYLQMDSLKPEDTAVYFCQADDPTSELNQYWGQGTQVTVSS

What was measured:
[1] = molecular target: mPD-L1-Fc (mouse PD-L1 ectodomain fused to human IgG1 Fc, BioLegend) (mouse, UniProt Q9EP73 19-239); assay: mPD-1/mPD-L1 binding inhibition
[2] = molecular target: biotinylated hPD-L1 fused to human IgG Fc (BPS Bioscience) (human, UniProt Q9NZQ7 19-238, biotinylated (site not stated)); assay: hPD-1/hPD-L1 binding inhibition
[3] = molecular target: T1, biotinylated mPD-1-Fc (BPS Bioscience); assay: mPD-1/mPD-L1 binding inhibition
[4] = molecular target: hPD-1-Fc (human PD-1 ectodomain fused to human IgG1 Fc, R&D) (human, UniProt Q15116 25-170); assay: hPD-1/hPD-L1 binding inhibition
Chain of hPD-1-Fc (human PD-1 ectodomain fused to human IgG1 Fc, R&D) (Q15116 25-170): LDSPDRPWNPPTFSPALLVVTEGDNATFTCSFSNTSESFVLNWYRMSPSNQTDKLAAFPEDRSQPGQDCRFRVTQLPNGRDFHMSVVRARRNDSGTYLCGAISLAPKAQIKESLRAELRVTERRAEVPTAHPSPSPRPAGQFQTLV

Chain of mPD-L1-Fc (mouse PD-L1 ectodomain fused to human IgG1 Fc, BioLegend) (Q9EP73 19-239): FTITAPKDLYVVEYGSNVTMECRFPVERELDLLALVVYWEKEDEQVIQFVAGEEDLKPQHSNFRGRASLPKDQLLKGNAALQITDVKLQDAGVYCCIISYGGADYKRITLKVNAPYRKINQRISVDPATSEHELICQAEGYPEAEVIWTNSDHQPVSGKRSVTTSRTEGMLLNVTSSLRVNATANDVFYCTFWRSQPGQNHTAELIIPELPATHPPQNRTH
Chain of biotinylated hPD-L1 fused to human IgG Fc (BPS Bioscience) (Q9NZQ7 19-238): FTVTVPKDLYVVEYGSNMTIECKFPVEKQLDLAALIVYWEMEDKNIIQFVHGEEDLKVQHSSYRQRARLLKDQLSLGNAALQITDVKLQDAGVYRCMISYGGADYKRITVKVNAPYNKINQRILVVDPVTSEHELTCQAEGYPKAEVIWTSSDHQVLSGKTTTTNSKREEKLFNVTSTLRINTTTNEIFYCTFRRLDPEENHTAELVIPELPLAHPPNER

| Binder | IC50 [1] | IC50 [2] | IC50 [3] | IC50 [4] |
| --- | --- | --- | --- | --- |
| B1 | 6.85 nM | 3.34 nM | – | – |
| B2 | – | – | 0.0439 nM | 0.147 nM |
| B3 | 0.889 nM | 0.498 nM | – | – |
| B4 | – | – | 1.71 nM | 5.85 nM |
